Experimental data taken from patent publication US20240158494A1 (Biogen, published 2024).
Where a chain is given by its changes, count along the chain named. Names and notes keep the numbering of the source.

T1: human transferrin receptor 2 (TfR2) overexpressed on BaF3 cells (human, UniProt Q9UP52 1-801)
T1 construct: whole, on cells
T1 sequence (looked up): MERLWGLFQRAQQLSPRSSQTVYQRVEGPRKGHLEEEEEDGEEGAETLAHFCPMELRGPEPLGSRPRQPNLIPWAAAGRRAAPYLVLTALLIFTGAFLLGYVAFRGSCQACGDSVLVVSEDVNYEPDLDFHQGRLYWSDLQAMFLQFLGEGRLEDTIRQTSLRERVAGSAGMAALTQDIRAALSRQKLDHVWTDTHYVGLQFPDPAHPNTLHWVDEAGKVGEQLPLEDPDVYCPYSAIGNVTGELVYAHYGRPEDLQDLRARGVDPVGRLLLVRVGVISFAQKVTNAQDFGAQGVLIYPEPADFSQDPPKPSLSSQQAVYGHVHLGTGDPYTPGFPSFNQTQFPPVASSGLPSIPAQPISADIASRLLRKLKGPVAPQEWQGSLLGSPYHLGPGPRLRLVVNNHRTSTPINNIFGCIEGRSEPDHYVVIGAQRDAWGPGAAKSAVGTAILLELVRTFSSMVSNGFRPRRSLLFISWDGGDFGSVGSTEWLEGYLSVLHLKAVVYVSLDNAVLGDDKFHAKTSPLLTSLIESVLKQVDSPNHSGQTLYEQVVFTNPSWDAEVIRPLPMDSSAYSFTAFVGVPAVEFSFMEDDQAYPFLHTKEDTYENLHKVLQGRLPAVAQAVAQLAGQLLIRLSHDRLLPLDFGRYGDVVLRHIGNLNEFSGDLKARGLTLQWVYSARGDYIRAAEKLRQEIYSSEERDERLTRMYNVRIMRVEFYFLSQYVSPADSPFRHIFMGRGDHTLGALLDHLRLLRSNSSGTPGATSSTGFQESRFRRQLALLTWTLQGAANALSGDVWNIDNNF

B1: TfR1 ANTIBODY-A HC-H2C hIgG4Fab/LC-L0 hKappa (ΔC214) (Fab, V domains shown)
VH: QSLVESGGGLVQPGGSLRLSCAASGIDFSSSGYMCWVRQAPGKGLEWVGCIYTYSSNTYYAASVKGRFTISKTSSTTVYLQMNSLKTEDTAVYYCARGTYGYTGYTYTMGYFSLWGQGTLVTVSS
VL: DIQMTQSPSTLSASVGDRVTITCQASQNINSYLAWYQQKPGKAPKLLIYRASSLESGVPSRFSGSGSGTEFTLTISSLQPDDFATYYCQSYYYSGSSNYNAFGGGTKVEIKR
notes: also called exemplary antibody (ii)
B2: TfRANTIBODY-B HC-H4C/LC-L2 (C90S) hIgG1Fab′(1C) (Fab, V domains shown)
VH: QSLVESGGGVVQPGRSLRLSCKASGFSFSNSYWICWVRQAPGKGLEWVGCINTDADSTNYASWARGRFTISKTSSTTVYLQMNSLRAEDTAVYYCARQNNVFDPGYNLWGPGTLVTVSS
VL: ELVLTQSPSTLSASVGDRVTITCRASQNIGSNLAWYQQKPGKAPKLLIYDASKLESGVPSRFSGSGSGTEFTLTISSLQPDDFATYYCQSTVRGGAYGNAFGGGTKVEIKR
notes: also called ANTIBODY-B H4C/L2(C90S); H4C (C90S)/L2
B3: TfRANTIBODY-B HC-H4C/LC-L2 (C90T) hIgG1Fab′(1C) (Fab, V domains shown)
VH: B2 VH
VL: B2 VL with S90T
notes: also called ANTIBODY-B H4C/L2(C90T); H4C (C90T)/L2
B4: TfRANTIBODY-B HC-H1C/LC-L2 (C90S) hIgG1Fab′(1C) (Fab, V domains shown)
VH: QSLVESGGGVVQPGRSLRLSCAASGFSFSNSYWICWVRQAPGKGLEWVGCINTDADSTNYADSVKGRFTISKDNSKNTVYLQMNSLRAEDTAVYYCARQNNVFDPGYNLWGQGTLVTVSS
VL: B2 VL
notes: also called ANTIBODY-B H1C/L2(C90S)
B5: TfRANTIBODY-B HC-H1C/LC-L2 (C90T) hIgG1Fab′(1C) (Fab, V domains shown)
VH: B4 VH
VL: B2 VL with S90T
notes: also called ANTIBODY-B H1C/L2(C90T)
B6: chimeric ANTIBODY-A mAb (RabANTIBODY-A, bivalent huIgG1) (antibody, V domains shown)
VH: QSLEESGGGLVQPGASLTLTCKASGIDFSSSGYMCWVRQAPGKGLEWIGCIYTYSSNTYYASWAKGRFTISKTSSTTVTLQMTSLTAADTATYFCARGTYGYTGYTYTMGYFSLWGPGTLVTVSS
VL: ELDMTQTPASVEAAVGGTVTIKCQASQNINSYLAWYQQKPGQPPKLLIYRASTLASGVPSRFKGSGSGTEFTLTISDLECADAATYYCQSYYYSGSSNYNAFGGGTELEIL
notes: rabbit variable regions with a human IgG1 framework, bivalent huIgG1; also called RabAB-A
B7: chimeric ANTIBODY B mAb (RabANTIBODY-B, bivalent huIgG1) (antibody, V domains shown)
VH: QSLEESGGGLVQPEGSLTLTCKASGFSFSNSYWICWVRQAPGKGLEWIGCINTDADSTNYASWARGRFTISKTSSTTVTLQMTSLTAADTASYFCARQNNVFDPGYNLWGPGTLVTVSS
VL: ELVLTQTPASVSEAVGGTVTIKCQASQNIGSNLAWYQQKPGQPPKLLIYDASKLASGVPSRFSGSGSGTEFTLTISDLECADAATYYCQCTVRGGAYGNAFGGGTEVVVK
notes: rabbit variable regions with a human IgG1 framework, bivalent huIgG1; also called rabAB-B

These binders were tested against T2, mouse transferrin receptor (TfR1) (mouse, UniProt Q62351 1-763, limits assumed) (assay: not described).
T2 construct: form and assay not described; also called mouse TfR

B1: no binding.

What follows are binders tested against T3, human transferrin receptor 1 (TfR1), full length, expressed on cells (human, UniProt P02786 1-760) (assay: FACS on Ba/F3 cells, purified Fab).
T3 construct: also called human TfR1; huTfR

B2 and B3 are within 1.5-fold of each other in EC50: 7.3 nM for the first, 5.1 nM for the second.

Compared with B4, B5 is 2.2-fold higher in EC50: 6.1 nM for the first, 13.6 nM for the second. The first is the more potent here.

These binders were tested against T4, cynomolgus monkey transferrin receptor 1 (TfR1), full length, expressed on cells (cynomolgus monkey, UniProt Q5RDH6 1-760 (Pongo abelii entry)) (assay: FACS on Ba/F3 cells, purified Fab).
T4 construct: also called cyno TfR1; cyTfR

First: B2
Second: B3
The EC50 of the first is 2.3-fold lower: 1.5 nM for the first, 3.4 nM for the second. The first is the more potent here.

B4 and B5 are the same in EC50: 3.2 nM for the first, 3.2 nM for the second.

The binders below were run against T3, human transferrin receptor 1 (TfR1), … (assay: FACS on Ba/F3 cells, Fab supernatant).

B2 and B3 are within 1.5-fold of each other in EC50: 11.3 nM for the first, 7.7 nM for the second.

B4 and B5 are within 1.5-fold of each other in EC50: 14.9 nM for the first, 12.6 nM for the second.

These binders were tested against T4, cynomolgus monkey transferrin receptor … (assay: FACS on Ba/F3 cells, Fab supernatant).

B2 and B3 are within 1.5-fold of each other in EC50: 3.3 nM for the first, 2.9 nM for the second.

B4 and B5 are within 1.5-fold of each other in EC50: 4.4 nM for the first, 5.4 nM for the second.

The binders below were run against T1, human transferrin receptor 2 (TfR2) … (assay: FACS on BaF3 cells overexpressing human TfR2).

B6: no binding (tested: 250 nM).
B7: no binding (tested: 250 nM).
